T1: RepTrixie immunity repressor (Mycobacteriophage Trixie, UniProt G1JV33 1-192)
T1 sequence: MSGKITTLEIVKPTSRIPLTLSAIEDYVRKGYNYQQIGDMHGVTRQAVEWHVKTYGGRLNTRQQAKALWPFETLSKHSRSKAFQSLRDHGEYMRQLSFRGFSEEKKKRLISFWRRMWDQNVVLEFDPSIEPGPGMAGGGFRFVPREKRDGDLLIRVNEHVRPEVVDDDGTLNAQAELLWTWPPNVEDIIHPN


Target: T1, RepTrixie immunity repressor
Assay: EMSA; EMSA on 8% polyacrylamide gel, serially diluted Rep with 5'-32P 30-bp dsDNA; binding buffer and temperature not given (ref. 54); protein storage buffer 50 mM Tris pH 8.0, 150 mM NaCl, 0.1 mM EDTA, 0.1 mM DTT, 50% glycerol
Settings: protein: recombinant; chain copies: 2; label: 5' 32P; blunt

Row | Binder | Kd [nM]
1 | RedRock stoperator 30-bp (dsDNA) DNA 1: TAAGGCGAACTTGACATCCACCGGGTTGGG DNA 2: CCCAACCCGGTGGATGTCAAGTTCGCCTTA | ~6.48
2 | Trixie stoperator 30-bp (dsDNA) DNA 1: TGAGCAGTACTTGACATTCACCAGGTTGGG DNA 2: CCCAACCTGGTGAATGTCAAGTACTGCTCA | ~6.48
